{"source": "patent US12269859B2", "about": "“Synthetic immune receptors and methods of use thereof” (Angeles Therapeutics, Inc., priority 2016, dated 2025)", "molecules": {"B1": {"name": "012617-M05 (protein)", "chain": "MALPVTALLLPLALLLHAARPLEGKPIPNPLLGLDSTGSGEDLKNVFPPEVAVFEPSKAEIAHTQKATLVCLATGFYPDHVELSWWVNGKEVHSGVCTDPQPLKEQPALNDSRYCLSSRLRVSATFWQNPRNHFRCQVQFYGLSENDEWTQDRAKPVTQIVSAEAWGRADCGITSASYHQGVLSATILYEILLGKATLYAVLVSALVLMAMVKRKDSRGRAKRSGSGATNFSLLKQAGDVEENPGPTSMALPVTALLLPLALLLHAARPQSVLTQPASVSGSPGQSITISCTGTSSDVGGYNYVSWYQQHPGKAPKLMIYDVNNRPSEVSNRFSGSKSGNTASLTISGLQAEDEADYYCSSYTTGSRAVFGGGTKLTVLGGGGGSGGGGSGGGGSEVQLVQSGAEVKKPGESLTISCKASGYSFPNYWITWVRQMSGGGLEWMGRIDPGDSYTTYNPSFQGHVTISIDKSTNTAYLHWNSLKASDTAMYYCARYYVSLVDIWGQGTLVTVSSTREQKLISEEDGSGIQNPDPAVYQLRDSKSSDKSVCLFTDFDSQTNVSQSKDSDVYITDKCVLDMRSMDFKSNSAVAWSNKSDFACANAFNNSIIPEDTFFPSSDVPCDVKLVEKSFETDTNLNFQNLSVIGFRILLLKVAGFNLLMTLRLWSSRAKRSGSGVKQTLNFDLLKLAGDVESNPGPSRGHMTEYKPTVRLATRDDVPRAVRTLAAAFADYPATRHTVDPDRHIERVTELQELFLTRVGLDIGKVWVADDGAAVAVWTTPESVEAGAVFAEIGPRMAELSGSRLAAQQQMEGLLAPHRPKEPAWFLATVGVSPDHQGKGLGSAVVLPGVEAAERAGVPAFLETSAPRNLPFYERLGFTVTADVEVPEGPRTWCMTRKPGA"}, "B2": {"name": "051816-Z01 (protein)", "chain": "MALPVTALLLPLALLLHAARPDVQMIQTPSSLSASLGDRVTISCRASQDIGNYLNWYQQKPDGTVKLLIYYTSRLHSGVPSRFSGSGSGTEYSLTISNLEQEDIATYFCQQGSALPPTFGGGTKLEINLEGKPIPNPLLGLDSTGSGEDLKNVFPPEVAVFEPSKAEIAHTQKATLVCLATGFYPDHVELSWWVNGKEVHSGVCTDPQPLKEQPALNDSRYCLSSRLRVSATFWQNPRNHFRCQVQFYGLSENDEWTQDRAKPVTQIVSAEAWGRADCGITSASYHQGVLSATILYEILLGKATLYAVLVSALVLMAMVKRKDSRGRAKRSGSGATNFSLLKQAGDVEENPGPTSMDWIWRILFLVGAATGAHSFEALQLQQSGAELVRPGASVTLSCKASGYTFTDYEMHWVKQTPVHGLEWIGAIDPETGGTAYNQKFEGKAILTADKSSSTAYMELRSLTSEDSPVYYCARRRYYGSSSFDYWGQGTTLTVSSTREQKLISEEDGSGIQNPDPAVYQLRDSKSSDKSVCLFTDFDSQTNVSQSKDSDVYITDKCVLDMRSMDFKSNSAVAWSNKSDFACANAFNNSIIPEDTFFPSSDVPCDVKLVEKSFETDTNLNFQNLSVIGFRILLLKVAGFNLLMTLRLWSSRAKRSGSGVKQTLNFDLLKLAGDVESNPGPSRGHMTEYKPTVRLATRDDVPRAVRTLAAAFADYPATRHTVDPDRHIERVTELQELFLTRVGLDIGKVWVADDGAAVAVWTTPESVEAGAVFAEIGPRMAELSGSRLAAQQQMEGLLAPHRPKEPAWFLATVGVSPDHQGKGLGSAVVLPGVEAAERAGVPAFLETSAPRNLPFYERLGFTVTADVEVPEGPRTWCMTRKPGA", "modifications": "Synthetic Immune Receptor (SIR)"}, "B3": {"name": "021317-E02 (protein)", "chain": "MALPVTALLLPLALLLHAARPLEGKPIPNPLLGLDSTGSGEDLKNVFPPEVAVFEPSKAEIAHTQKATLVCLATGFYPDHVELSWWVNGKEVHSGVCTDPQPLKEQPALNDSRYCLSSRLRVSATFWQNPRNHFRCQVQFYGLSENDEWTQDRAKPVTQIVSAEAWGRADCGITSASYHQGVLSATILYEILLGKATLYAVLVSALVLMAMVKRKDSRGRAKRSGSGATNFSLLKQAGDVEENPGPTSMALPVTALLLPLALLLHAARPQSVLTQPPSVSGAPGQRVTISCTGSSSNIGAGYDVHWYQQLPGTAPKLLIFGNSNRPSGVPDRFSGFKSGTSASLAITGLQAEDEADYFCQSYDSSLSGSGVFGTGTKVTVLGGGGGSGGGGSGGGGSQMQLVQSGGGLVQPGRSLRLSCAASGFTFDDYAMHWVRQAPGKGLEWVSGISWNSGSIGYADSVKGRFTISRDNAKNSLYLQMNSLRAEDTALYYCAKDIHSGSYYGLLYYAMDVWGQGTTVTVSSTREQKLISEEDGSGIQNPDPAVYQLRDSKSSDKSVCLFTDFDSQTNVSQSKDSDVYITDKCVLDMRSMDFKSNSAVAWSNKSDFACANAFNNSIIPEDTFFPSSDVPCDVKLVEKSFETDTNLNFQNLSVIGFRILLLKVAGFNLLMTLRLWSSRAKRSGSGVKQTLNFDLLKLAGDVESNPGPSRGHMTEYKPTVRLATRDDVPRAVRTLAAAFADYPATRHTVDPDRHIERVTELQELFLTRVGLDIGKVWVADDGAAVAVWTTPESVEAGAVFAEIGPRMAELSGSRLAAQQQMEGLLAPHRPKEPAWFLATVGVSPDHQGKGLGSAVVLPGVEAAERAGVPAFLETSAPRNLPFYERLGFTVTADVEVPEGPRTWCMTRKPGA"}, "B4": {"name": "012417-H04 (protein)", "chain": "MALPVTALLLPLALLLHAARPLEGKPIPNPLLGLDSTGSGEDLKNVFPPEVAVFEPSKAEIAHTQKATLVCLATGFYPDHVELSWWVNGKEVHSGVCTDPQPLKEQPALNDSRYCLSSRLRVSATFWQNPRNHFRCQVQFYGLSENDEWTQDRAKPVTQIVSAEAWGRADCGITSASYHQGVLSATILYEILLGKATLYAVLVSALVLMAMVKRKDSRGRAKRSGSGATNFSLLKQAGDVEENPGPTSMALPVTALLLPLALLLHAARPDIVMTQSPATLSLSPGERATLSCRSSKSLQNVNGNTYLYWFQQKPGQSPQLLIYRMSNLNSGVPDRFSGSGSGTEFTLTISSLEPEDFAVYYCMQHLEYPITFGAGTKLEIKGGGGSGGGGSGGGGSEVQLVESGGGLVKPGGSLKLSCAASGYTFTSYVMHWVRQAPGKGLEWIGYINPYNDGTKYNEKFQGRVTISSDKSISTAYMELSSLRSEDTAMYYCARGTYYYGTRVFDYWGQGTLVTVSSTREQKLISEEDGSGIQNPDPAVYQLRDSKSSDKSVCLFTDFDSQTNVSQSKDSDVYITDKCVLDMRSMDFKSNSAVAWSNKSDFACANAFNNSIIPEDTFFPSSDVPCDVKLVEKSFETDTNLNFQNLSVIGFRILLLKVAGFNLLMTLRLWSSRAKRSGSGVKQTLNFDLLKLAGDVESNPGPSRGHMTEYKPTVRLATRDDVPRAVRTLAAAFADYPATRHTVDPDRHIERVTELQELFLTRVGLDIGKVWVADDGAAVAVWTTPESVEAGAVFAEIGPRMAELSGSRLAAQQQMEGLLAPHRPKEPAWFLATVGVSPDHQGKGLGSAVVLPGVEAAERAGVPAFLETSAPRNLPFYERLGFTVTADVEVPEGPRTWCMTRKPGA"}}, "system": "target antigen-expressing cell line", "experiment": "Jurkat NFAT-GFP assay, coculture with target cell lines expressing the respective target antigen (summary Table 10A)", "type": "cell-based, human", "parameters": "key: The signs +/−, +, 2+ etc. after the name of the cell lines indicate the relative degree of positivity on the Jurkat-NFAT-GFP assay as measured by the % GFP positive cells; +: relative degree of positivity on the Jurkat-NFAT-GFP assay as measured by the % GFP positive cells; 2+: relative degree of positivity on the Jurkat-NFAT-GFP assay as measured by the % GFP positive cells", "conditions": "relative % GFP positive cells; for NFAT-GFP ASSAY Positive Cell lines: HepG2: SIR-expressing Jurkat-NFAT-GFP cells cocultured with HepG2", "method": "(B) Induction of NFAT promoter driven GFP expression. The control vector- and SIR-expressing Jurkat-NFAT-GFP cocultured for 4-24 hours with the target antigen-expressing cell line (described above) and their ability to bind to the target antigen is assayed by measuring induction of GFP expression using Flow Cytometry. Cellular supernatant is collected and assayed for the induction of cytokines (e.g., IL2).\nJurkat NFAT-GFP Assay For Synthetic Immune Receptors. The Jurkat-NFAT-GFP cells are engineered in such a way that the IL-2 promoter, which carries NFAT binding sites, is cloned upstream of the GFP gene. These cells have been used to study signaling via TCR and CAR. The different SIRs were stably expressed in Jurkat NFAT-GFP cells by lentiviral mediated gene transfer, followed by selection with puromycin. The SIR-expressing Jurkat-NFAT-GFP cells were cocultured with the target cells at E:T ratio of approximately 1:2 for approximately 4 hours to 18 hours. When the interaction between SIRs and their target antigen results in activation of the NFAT pathway, GFP expression is induced.\nInduction of GFP expression by coculturing of Jurkat-NFAT-GFP cells expressing different SIR constructs and the different target cells was studied essentially as described previously (Wu, Roybal, Puchner, Onuffer, & Lim, 2015). GFP expression was monitored by FACS analysis. A few representative examples of this assay are shown in the FIG. 13A-B. In panel A, control Jurkat-NFAT-GFP cells or those expressing SIRs targeting CD19 (clone ID 051716-I08), MPL (Clone ID: 040716-A07) and BCMA (Clone ID: 011116-A07) were incubated with RAJI (top), HEL (middle) or U266 (bottom) cells, respectively. […] In panel B, Jurkat cells expressing SIR targeting CDH6 (Clone ID: 051716-J05), CD276 (Clone ID: 050516-Q06) and Her2/neu (Clone ID: 050516-I03) were incubated with SKOV3 (top) and […] (middle and bottom) cells, respectively. […] The Jurkat-NFAT-GFP cells were engineered to express different SIRs targeting other antigens and the experiment repeated upon coculture with the target cells expressing their respective target antigen. The Jurkat-NFAT-GFP (parental) cells were used as control. The names of different SIRs, their SEQ ID NOs, component antigen binding domains and TCR chains can be determined by reference to Tables 7A-7H. A SIR is considered positive in the assay in case the SIR expressing Jurkat-NFAT-GFP cells show greater % GFP positive cells when cultured with the target cell line as compared to parental Jurkat-NFAT-GFP cells. […] The signs +/−, +, 2+ etc. after the name of the cell lines indicate the relative degree of positivity on the Jurkat-NFAT-GFP assay as measured by the % GFP positive cells after culture of the SIR expressing Jurkat-NFAT-GFP cells with that cell line. […] In addition, great diversity of response against the same target cell line is observed with Jurkat cells expressing SIRs containing different antigen binding domains targeting the same antigen (e.g., SIRs having antigen binding domains derived form different CD19 antibodies) even when the SIRs share the same TCR chains and linkers. Finally, Jurkat cells expressing SIRs targeting different antigens (e.g. CD19 vs CD20) show a diversitiy of response when exposed to the same target cell line. Thus, a diverse immune response can be generated against a single target cell by combining SIRs with different TCR chains, linkers, antigen binding domains and target specificity. Table 10A also summarizes the results of GLuc based T cell cytotoxicity assay observed with different SIRs when exposed to their target cell lines. […]", "data": [{"molecule": "B1", "values": [{"measurement": "NFAT-GFP ASSAY Positive Cell lines: HepG2", "result": "HepG2 (2+)"}]}, {"molecule": "B2", "values": [{"measurement": "NFAT-GFP ASSAY Positive Cell lines: LAN5", "setting": "SIR-expressing Jurkat-NFAT-GFP cells cocultured with LAN5", "result": "LAN5 (2+)"}]}, {"molecule": "B3", "values": [{"measurement": "NFAT-GFP ASSAY Positive Cell lines: HepG2", "result": "HepG2 (+)"}]}, {"molecule": "B4", "values": [{"measurement": "NFAT-GFP ASSAY Positive Cell lines: NALM6", "setting": "SIR-expressing Jurkat-NFAT-GFP cells cocultured with NALM6", "result": "(+)"}, {"measurement": "NFAT-GFP ASSAY Positive Cell lines: RAJI", "setting": "SIR-expressing Jurkat-NFAT-GFP cells cocultured with RAJI", "result": "RAJI (2+), NALM6"}]}]}
